The values below come from article PMC9274004, “Deciphering the Molecular Interaction Between the Adhesion G Protein-Coupled Receptor ADGRV1 and its PDZ-Containing Regulator PDZD7” (Frontiers in Molecular Biosciences, 2022).

The nature of series [1]: nanoDSF thermostability of unbound PDZD7 constructs. Particulars: MES pH6 (50 mM), micromolar concentrations, without ligand. The series is classed as physicochemical. As to the method: (§1) NanoDSF experiments were performed on a Prometheus (Nanotemper) spectrometer using Prometheus NT.48 Series nanoDSF Grade High Sensitivity Capillaries. All samples were prepared in MES pH6 (50 mM) at micromolar concentrations. For the complexes, ADGRV1pbm peptide was added at a final concentration of 756 μM, diluting the samples by 5%.

Series [2] relates to PDZD7 PDZ1ext WT. Nature of the series: nanoDSF thermostability of PDZ1ext WT in complex. The format is binding, murine. Particulars: MES pH6 (50 mM), PDZ1ext WT + ADGRV1pbm 756 μM, unbound Tm 61.6°C. As to the method:
as §1
(In general: Differential scanning fluorimetry follows unfolding on heating by fluorescence.)

Series [3] has as its system PDZD7 PDZ2ext WT. The series is described as follows: nanoDSF thermostability of PDZ2ext WT in complex. Particulars: MES pH6 (50 mM), PDZ2ext WT + ADGRV1pbm 756 μM, unbound Tm 38.5°C. The format is binding, murine. The procedure: as §1
The nature of series [4]: Aggregation / sample stability of purified PDZ2 constructs. The series is classed as physicochemical. An excerpt: The biochemical behavior of PDZD7 PDZ2 drastically differs from PDZ1, with or without its C-terminal extension. […] In order to further establish the accessible folding states of the PDZ2 extension, we used the same metadynamics approach as for PDZ1ext and probed its conformational energy landscape (Figure 3C).

Series [5] deals with PDZD7 P1P2 WT. Nature of the series: nanoDSF thermostability of P1P2 WT in complex. The format is binding, murine. Particulars: MES pH6 (50 mM), P1P2 WT + ADGRV1pbm 756 μM, unbound Tm 41°C. The procedure: as §1
Series [6] can be described thus: SAXS geometrical parameters of unbound PDZ tandem. The conditions noted are these: without ligand, Phosphate Buffer 50 mM pH 6.5, NaCl 300 mM, TCEP 0.5 mM. The format is physicochemical. The procedure: X-ray scattering data were collected at the SWING beamline at Soleil Synchrotron (Saclay, France). 50 μl of sample are injected on a Superdex-75 5/150 GL size exclusion column in-line with the SAXS measuring cell. PDZD7 samples are prepared in the same buffer (Phosphate Buffer 50 mM pH 6.5, NaCl 300 mM, TCEP 0.5 mM, anti-proteases). The experiment is performed at initial concentrations of 119 μM (3.1 mg/ml) for P1P2 WT and 108 μM (2.8 mg/ml) for P1P2 G103R. For complexes, 2 μl of pH-adjusted ADGRV1pbm peptide (VELRRIPIADTHL-COOH; 13,7 mM) are added to the 50 μl from the sample 1 hour before recording. Initial data processing was performed using sxCuBE, FOXTROT and PRIMUS. The radii of gyration were evaluated using Guinier approximation. The Dmax was determined from the distance distribution function P(r) obtained with the program GNOM.

Series [7] is described as follows: Analytical UltraCentrifugation of unbound P1P2. The conditions noted are these: AUC, 10°C, P1P2 0.4 mg/ml, Phosphate Buffer pH 6.5 (50 mM). The series is classed as physicochemical. The procedure:
AUC experiments were performed at 10°C using an analytical Beckman Coulter Optima ultracentrifuge equipped with a AN50-Ti rotor. The P1P2 sample was prepared at 0.4 mg/ml in Phosphate Buffer pH 6.5 (50 mM). For the complex, 10 μl of pH-adjusted ADGRV1pbm peptide (13,7 mM) were added to 300 μl of P1P2 sample. Interference profiles were analyzed with SEDFIT.

B1: PDZ1ext WT: first PDZ of mouse PDZD7 with its C-terminal extension (A81 to E192) (protein, UniProt E9Q9W7 81-192, looked up, fragment)
chain: SDIIHAVRVEKSPSGRLGFSVRGGSEHGLGIFVSKVEEGSSAERAGLCVGDKITEVNGLSLESTTMGSAVRLLTSSSCLHMMVRRMGRVPGIKFSKEKTTWVDVVNRRLVVE
As for B1, the “Tm (Unbound)” value in series [1] was 61.6 °C. Besides, the “Tm (Bound)” value in series [2] turned out to be 61.8 °C.

B2: PDZ2ext WT: second PDZ of mouse PDZD7 with its C-terminal extension (G206 to G313) (protein)
chain: GVRRIVHLYTTSDDFCLGFNIRGGKEFGLGIYVSKVDHGGLAEENGIKVGDQVLAANGVRFDDISHSQAVEVLKGQTHIMLTIKETGRYPAYKEMVSEYCWLDRLSNG
modifications: left off: GST, N-terminal, cleaved
B2: the “Tm (Unbound)” value in series [1] was found to be 38.5 °C. Further, the “Tm (Bound)” value in series [3] worked out at 47.2 °C. In addition, the sample stability entry in series [4] (15N-labelled PDZ2 constructs, NMR) is reported as “stable for a few hours only”. Moreover, the aggregation entry in series [4] (at temperatures higher than 15 °C, despite extensive screening of buffer conditions) was “Rapid aggregation”.

B3: P1P2 WT: PDZD7 PDZ tandem (P1P2 construct; A81 to G313) (protein, UniProt E9Q9W7 81-313, looked up, fragment)
chain: SDIIHAVRVEKSPSGRLGFSVRGGSEHGLGIFVSKVEEGSSAERAGLCVGDKITEVNGLSLESTTMGSAVRLLTSSSCLHMMVRRMGRVPGIKFSKEKTTWVDVVNRRLVVEKCSSTPSDRSSEDGVRRIVHLYTTSDDFCLGFNIRGGKEFGLGIYVSKVDHGGLAEENGIKVGDQVLAANGVRFDDISHSQAVEVLKGQTHIMLTIKETGRYPAYKEMVSEYCWLDRLSNG
Take B3: the “Tm (Unbound)” value in series [1] worked out at 41 °C. The “Tm (Bound)” value in series [5] was 57.2 °C. Further, the “radius of gyration (Rg)” value in series [6] (Guinier approximation) was found to be 27.8 Å. In series [6] (P(r) with GNOM), the “interatomic maximum distance (Dmax)” value came out at 109.5 Å. In addition, the sedimentation coefficient in series [7] was 1.6 Svedberg (S).
